Results from PMC2917355, “Characterization of a Temperature-Sensitive Vertebrate Clathrin Heavy Chain Mutant as a Tool to Study Clathrin-Dependent Events In Vivo” (PLoS ONE, 2010).

Biological target: the molecule itself
Test: cross-linking; 1 µM clathrin hub fragment (wild type or TS-mutant) in PBS with 10 mg/l BS3 for 5 min at temperatures from 26 to 47°C; SDS-PAGE with silver stain or anti-His-tag Western blot

B1: human clathrin heavy chain wild type hub fragment (domain or fragment, UniProt Q00610 1074-1675, looked up)
chain: KFDVNTSAVQVLIEHIGNLDRAYEFAERCNEPAVWSQLAKAQLQKGMVKEAIDSYIKADDPSSYMEVVQAANTSGNWEELVKYLQMARKKARESYVETELIFALAKTNRLAELEEFINGPNNAHIQQVGDRCYDEKMYDAAKLLYNNVSNFGRLASTLVHLGEYQAAVDGARKANSTRTWKEVCFACVDGKEFRLAQMCGLHIVVHADELEELINYYQDRGYFEELITMLEAALGLERAHMGMFTELAILYSKFKPQKMREHLELFWSRVNIPKVLRAAEQAHLWAELVFLYDKYEEYDNAIITMMNHPTDAWKEGQFKDIITKVANVELYYRAIQFYLEFKPLLLNDLLMVLSPRLDHTRAVNYFSKVKQLPLVKPYLRSVQNHNNKSVNESLNNLFITEEDYQALRTSIDAYDNFDNISLAQRLEKHELIEFRRIAAYLFKGNNRWKQSVELCKKDSLYKDAMQYASESKDTELAEELLQWFLQEEKRECFGACLFTCYDLLRPDVVLETAWRHNIMDFAMPYFIQVMKEYLTKVDKLDASESLRKEEEQATETQPIVYGQPQLMLTAGPSVAVPPQAPFGYGYTAPPYGQPQPGFGYSM
notes: Clathrin heavy chain, human, C-terminal 'hub' fragment involved in trimerization; The PCR primers encode KFDVNTS... at the start (after a BamHI site) and ...GFGYSM followed by the stop codon at the end (before a HindIII site); Cloned in pET28a between BamHI and HindIII with its own stop codon, so the His tag is probably N-terminal (surmised); also called clathrin-hub fragment; hub fragment (wild …)
Does B1 bind?
Result: binds

B2: human clathrin heavy chain TS-hub fragment (E1584K) (domain or fragment, UniProt Q00610 1074-1675, looked up)
chain: KFDVNTSAVQVLIEHIGNLDRAYEFAERCNEPAVWSQLAKAQLQKGMVKEAIDSYIKADDPSSYMEVVQAANTSGNWEELVKYLQMARKKARESYVETELIFALAKTNRLAELEEFINGPNNAHIQQVGDRCYDEKMYDAAKLLYNNVSNFGRLASTLVHLGEYQAAVDGARKANSTRTWKEVCFACVDGKEFRLAQMCGLHIVVHADELEELINYYQDRGYFEELITMLEAALGLERAHMGMFTELAILYSKFKPQKMREHLELFWSRVNIPKVLRAAEQAHLWAELVFLYDKYEEYDNAIITMMNHPTDAWKEGQFKDIITKVANVELYYRAIQFYLEFKPLLLNDLLMVLSPRLDHTRAVNYFSKVKQLPLVKPYLRSVQNHNNKSVNESLNNLFITEEDYQALRTSIDAYDNFDNISLAQRLEKHELIEFRRIAAYLFKGNNRWKQSVELCKKDSLYKDAMQYASESKDTELAEELLQWFLQEEKRECFGACLFTCYDLLRPDVVLKTAWRHNIMDFAMPYFIQVMKEYLTKVDKLDASESLRKEEEQATETQPIVYGQPQLMLTAGPSVAVPPQAPFGYGYTAPPYGQPQPGFGYSM
notes: Clathrin heavy chain, human, C-terminal 'hub' fragment amplified from the TS-clathrin (E1584K) cDNA; The PCR primers encode KFDVNTS... at the start and ...GFGYSM followed by the stop codon at the end; Same construct as m1 but with the temperature-sensitive point mutation E1584K. pET28a, so the His tag is probably N-terminal (surmised); also called clathrin hub fragment TS-mutant; pET28a human …
Does B2 bind?
Result: binds
